The target in this experiment is 6His-Nup60 aa27–539ΔHRΔFG-mGFP-StrepII (budding yeast (S. cerevisiae), UniProt P39705 27-539, ΔHR (aa48–162) | ΔFG (aa381–504)). The experiment is described as follows: GUV co-recruitment assay.

This note sets out measurements from article PMC8836807 (Science Advances, 2022).

B1: 6His-SUMO-Nup2 aa83–136–TagmBFPII-StrepII (domain or fragment, budding yeast (S. cerevisiae), UniProt P32499 83-136, looked up)
chain: NSPTTESNSRLKALNLQFKAKVDDLVLGKPLADLRPLFTRYELYIKNILEAPVK
Turning to B1, the binding result is “binds”.
